This series can be described thus: label from the status in PepcDB records.
On to “MSDIIHLLPDSVANQIAAGEVIQRPASVIKELVENAIDADAQNIHVLVTDAGKTCIQIIDDGKGMSETDARLSFERHATSKIREAADLFALRTMGFRGEALASIAAVAQVELKTRLESEELGTKLVIAGSKVESQEAVSCSKGSNFSVKNLFFNVPARRKFLKANSTELSNILAEFERIALVHPEVAFSLYSNDSELFNLPVSPLRQRILAIFGKKLNQQLLNIEVNTTMVKISGYIAKPETARKKGAHQYFFVNGRYMRHPYFHKAVMEAYEQLIPVGEQVSYFIYFEVDPANIDVNIHPTKTEIKFENEQAIWQILSASVKESLGKFSAIPSIDFDTEDMPDIPAFEQNLPPAPPKIHYNSDFNPFKVSSGGSGGGSYSRPKVEWEGLYGGLTKASKMNEPQQEPEMDWENSPFEEEPMVAEEKTISAVSAASSTFSSASSTLYANESVIEKGNLHLQFKGRFILTSVKSGLMLIDQHRAHIRVLFDRYMVQIKQKQGVSQGVLFPEILQLPASEAAVLQGIMDDLSAVGFDLSDLGGGSYAINGIPSGIEGLNPVELVRNMLHTAMEKGNDVKEEIQNILALTLARAAAIVYGQVLSNEEMVSLVDSLFACPSPNYTPDGKTVLTTIKEEDIEKLFK”, for which the protein production entry was “failed”. The same measure for “MSQDRIAGIDVATNSTDISNIINEMIICIKGKQMPEVHEKAMDHLSKMIAANSRVIRDSNMLTERECVQKIMKLLSARYKKEEGKTVSDHFNELYRKLTLTKCDPHMRHSLMTHLLTITDNSDAEKAVASEDPRTQCDNLTQILVSRLNSISSSIASLNEMGVVNGNGVGAAAVTGAAAVTGAAAVTGAAAVTGAAASHSYDATQSSIGLRKQSLPNYLDATKMLPESRHDIVMSAIYSFTGVQGKYLKKDVVTGRFKLDQQNIKFLTTGQAGMLLRLSELGYYHDRVVKFSDVSTGFNAIGSMGQALISKLKEELANFHGQVAMLHDEMQRFRQASVNGIANKGKKDSGPDAGDEMTLFKLLAWYIKPLHRMQWLTKIADACQVKKGGDLASTVYDFLDNGNDMVNKLVEDFLTAICGPLVRMISKWILEGGISDMHREFFVKSIKDVGVDRLWHDKFRLRLPMLPKFVPMDMANKIFMTGKSINFLREICEEQGMMKERDELMKVMESSASQIFSYTPDTSWHAAVETCYQQTSKHVLDIMVGPHKLLDHLHGMRRYLLLGQGDFISILIENMKNELERPALDIYANDLTSMLDSALRCTNAQYDDPDILNHLDVIVQRPFNGDIGWNIISLQYIVHGPLAAMLESTMPTYKVLFKPLWRMKHMEFVLSMKIWKEQMGNAKALRTMKSEIGKASHRLNLFTSEIMHFIHQMQYYVLFEVIECNWVELQKKMQKATTLDEILEAHEKFLQTILVGCFVSNKASVEHSLEVVYENIIELEKWQSSFYKDCFKELNARKELSKIVEKSEKKGVYGLTNKMILQRDQEAKIFAEKMDIACRGLEVIATDYEKAVSTFLMSLNSSDDPNLQLFGTRLDFNEYYKKRDTNLSKPLTFEHMRMSNVFAVNSRFVICTPSTQE”: “failed”.

For the sequence “MCGIVGANSTRNVTNILIEGLKKLEYRGYDSAGLAIIDDKNNIDICKEVGKVIELEKSVHNLANFKGDIGIAHTRWATHGKPSKNNSHPHASESFCIVHNGVIENFAELKKVLINDGYKFKSDTDTEVIAHLLQKEWRDNFSIVDNIKYIMAMLKGAYAVAIISQKFSDKIVAVRSGSPLVIGVGIDENFISSDALSLLPVTNKFSYLDEGDIAIISKDNVEVFDNNGAAKNLEVEEYNYSSSSASKDGYKHYMLKEIYEQPEAVSNTILASLADGEISLDSFDKRAKELFEKTKHICIVACGTSYNAGMTAKYWIEKYAKVPCSVEIASEIRYRDNVVVDGSLFVSISQSGETADTLESLRKSKKQNYVGSMCICNVPNSSLVRESDIAFMTKAGVEIGVASTKAFTTQLVALAIFTLVIAKLKNSLTDQQIAKYTEELKNIRALVMGALKLDTEIDQISEYFSDKEHTIFLGRGLYYPIAIEGALKLKEISYIHAEAYPSGELKHGPLALVDKNMPIVAVVPNDELLDKTLSNLQEVHARGGKLILFVDKAVKERVNFDNSIVLELDAGHDFSAPVVFTIPLQLLSYHVAIIKGTDVDQPRNLAKSVTVE”, the protein production result is recorded as “not failed”.

Take “MNKKNVELLVAIGEVYLKAGKLPEAQEYAALAKKVNGKSALASVLEGDIAFEQKNAGLASQKYEEAIYFDPSCTEAYLRYADIYKSANAALAIEKLEQLKAQEPSNTAVDKKLAEIYYLKNDFSKAAEAYSRFAMGPTATEEDLVKYAFALFLNHDFEKSLEVANMGLKKNARHAAFNRLAMYNYTDLKRFDEAIKAADAFFTESDKADYSYLDYMYYGHLLEALKKYDEAVGQYEKAIQLDPTKTDLYKNISSAYEQKNDYKKAISAYQKYYTSLDKEHQTPDLEHHHHHH”: the protein production entry is listed as “failed”. Regarding “MLPLEPYLTQTSAVPQMSHFMCHSPTHKPQGLLPWAPFHQASVSLYPISPWPSESVCPPTCPGGASCWFPAGNAWDRVELGFLGFGAGGVSIAVPGFPLSCGQGCCAGGWLGHGARFPAKLRAFPQVIRRGWLTINNISLMKGGSKEYWFVLTAESLSWYKDEEEKEKKYMLPLDNLKIRDVEKGFMSNKHVFAIFNTEQRNVYKDLRQIELACDSQEDVDSWKASFLRAGVYPEKDQAENEDGAQENTFSMDPQLERQVETIRNLVDSYVAIINKSIRDLMPKTIMHLMINNTKAFIHHELLAYLYSSADQSSLMEESADQAQRRDDMLRMYHALKEALNIIGDISTSTVSTPVPPPVDDTWLQSASSHSPTPQRRPVSSIHPPGRPPAVRGPTPGPPLIPVPVGAAASFSAPPIPSRPGPQSVFANSDLFPAPPQIPSRPVRIPPGIPPGVPRRPPAAPSRPTIIRPAEPSLLD”, the protein production entry is recorded as “not failed”. The same measure for “MVQDQIRYDILVQDALRGVIRKVLSEVAKAGLPGSHHFFITFLTNAPGVKISTRLKSRYPEQMTIVLQHQFRDLNVSETAFEVTLSFREVSEKLVIPFHSIQVFYDPVAAFEAAFDLPSNLNSKEGENLENIASTPVILSDTQKKEKKFPKEQISKTNKDSSNNDTKQSADVVSLDSFRKKLEHHHHHH”: “not failed”; for “MEDSSGQSLLFQFILLLILTLLSAFFSASEMALVSLNRSRVEQKAEEGDKKFIRLLKVLENPNNFLSTIQVGITFIGLLQGASLSASLGAVIATWFGNVAWAKTAGSVVSLVVLTYISIVFGELYPKRIAMNLKENLAIYSAPVIIVTGKIVSPFVWILSASTNLLSRLTPMTFDDADEPMTRDEIEYMLTKSEDTLEAEEIEMLQGIFSLDELMAREVMVPRTDAFMIDIEDDTQENIQAILKQSFSRIPVYEDNKDKIIGVIHTKKLLKAAYELGFENVNLRRIMNEPLFVPETIFVDDLLAAFRNTNNQMAILLDEYGGVAGLVTFEDLLEEIVGEIDDETDKASVEVREIGENTYIVEGSMTLNDFNEHFDTELESDDVDTIAGYYLTGVGAIPTQEVKEHYEVINKDKRLEFINDKVKDGRVTKLKVIITAAPEEAGE”: “failed”. Next, “MAAHDDDMNRGIRPGRGSDDPAGQIAYLEQEIAVLRRKLADSPRHTRILEERIVELQTNLAGVSAQNERLANTLREARDQIVALKEEVDRLAQPPAGFGVFLTANEDGTADIFTGGRKLRVNVSPSVELEELRRGQELMLNEALNVVEAMEYESVGDIVTLKEILEDGERALVVGHTDEERVVRLAEPLLDVTIRPGDALLLEPRSGYVYEVVPKSEVEELVLEEVPDIGYEQIGGLGNQIEMIRDAVELPYLYPDLFKEHELRPPKGVLLYGPPGCGKTLIAKAVANSLAKKVAEVTGQATGKSFFLNIKGPELLNKYVGETERQIRLVFQRAREKASEGTPVIVFFDEMESLFRTRGSGVSSDVENTIVPQLLAEIDGVEGLQNVVVIGASNREDMIDPAILRPGRLDVKIKIERPDAEAAKDIFGKYLTERLPLHTEDVGEHGGDRSATVHGMIQTAVEQMYAESEENRFLEVTYANGDKEVLYFKDFNSGAMIENIVGRAKKMAIKDFLEHSQKGLRVSHLLQACVDEFKENEDLPNTTNPDDWARISGKKGERIVYIRTLITGKQGADTGRSIDTVANTGQYL”: “failed”; “MNVKRIKKRMFITFSIIAVLAIALYIFLQTAPFGNPPADARLERIRKSANYKDGVFKNLSNTPVMAEDASYMDMIKQQFSKDSTREPAVCIPSVKRDLSLVPSDRPVITWFGHSTYLIQTEGKNILIDPVFCTSTSPVQFVGNKKYKGTEVYTPADFPAINYLILTHDHYDHLDYQTTLDMQSKVFSYYMPLGVGSHLESWGIDTAKLHELDWWQEIDLEPGYKLVCLPARHFSGRSITDRGKTLWASYLLITPTHKIYIGGDSGYDTHFKQIADKYGAVDIAFLESGQYNAYWPYIHMMPEQTVQAAKDLQAKVLLPVHWGKYTLALHPWDEPIKRLTLEAHKQQVNVATPMIGEPVILDSILPHSTWWVPEGKK”: “failed”; “MKVKDVCKLISLKPTVVEEDTPIEEIVDRILEDPVTRTVYVARDNKLVGMIPVMHLLKVSGFHFFGFIPKEELIRSSMKRLIAKNASEIMLDPVYVHMDTPLEEALKLMIDNNIQEMPVVDEKGEIVGDLNSLEILLALWKGREK”: “not failed”. Next, “MKKLSFFLIATLSLGACSTATSPTGRHQVFSGVSQQQLNQLGEQAFVEIKAKEKISGNVRQNAYVRCVVDALVTELPLQWRHVKWETVLFLNEEPNAFALPGGKVGVNTGIFRAAKNQEQLAAVLGHEIGHVVSRHHEERITWQLGTQAGLGLLGVLAGTAYGDSAATAVNQIGGLTAQAAFLLPGSRTQEREADIVGQRLMAQAGFDPIQAVYLWKNMLAIAGQRPPQWLSTHPDPTNRIRQLEQQSAVLASVYAQARDAGRVPHCSPAALEHHHHHH”: “failed”; “MSTVAFHTLGCKVNHYETEAIWQLFKQGGYERTEYEKKADVYVINTCTVTNTGDKKSRQVIRRAVRQNPDAVICVTGCYAQTSPAEIMAIPGVDIVVGTQDREKMLGYIEEFRKERQPINAVRNIMKTRVYEELDVPYFTDRTRASLKIQEGCNNFCTFCIIPWARGLMRSRDGKEVIKQAQQLVDAGYKEIVLTGIHTGGYGEDIKDYNLAGLLRDMEAEVGGLKRLRISSIEASQISDEVIEVLDKSEVVVRHLHIPLQSGSNTVLKRMRRKYTMEFFQERLDRLKEALPGLAITSDVIVGFPGETEEEFMETYNFIKENRFSELHVFPYSKRTGTPAARMEDQVPEDVKNDRVHRLIELSNQLAKEYASQFEGEVLEIIPEEQFKEGDREGLYVGYTDNYLKIVFEGSEELIGKLVKVKITKAGYPYNEAQFVRVLEDDVKKESASALEHHHHHH”: “failed”. Regarding “MAGYKPVAIQTYPVLGEKITQDTLYWNNYKTPVQIKEFGAVSKVDFSPQLPYNYAVTASSRIHIYGRYSQEPVKTFSRFKDTAYCATFRQDGQLLVAGSEDGVVQLFDINGRAPLRQFEGHTKAVHTVDFTADNYHVVSGADDYTVKLWDIPNSKEILTFKEHSDYVRCGCASKLNPDLFVTGSYDHTVKIFDARTNKNVLCVEHGQPVESVLLFPSGGLLVSAGGRYVKVWDMLKGGQLLVSLKNHHKTVTCLCLSSSGQRLLSGSLDRKVKVYSTTSYKVVHSFDYAASILSLALSHQDETIVVGMTNGILSVKHRKSEAKKTSLPRRRRPAYRTFIKGKNYLKQRDDIMVSRPAKKHLEGYDKDLKSFRVSQALDRVLEPKCVIRTPEVTVSIIKELTRRGVLANALAGRDEKEVTRVLNFLIRNLSQPRFAPVLINAAEIIIDIYLPVIGQSSVVDKKFIVLQELVEKEIDYQRELLETLGMMDMLFATMTRNDSDPVPEHVPAELPEEKTESPTQPSDTDKNS”, the protein production result is on record as “failed”. The same measure for “MTDKFLQFPVIDPIIFSIGPVSLRWYGTMYLIGFLAAMFMANKAADRSNGLWTRDQVSDVLFYGFLGVILGGRVGYVLFYQFEYFLSDPLYLFEIWQGGMSFHGGLLGVILAVFIFARKTNKSFLAVGDFVVPLVPIGLGMGRLGNFINAELWGRQTDVSWAMVFPTDPLQVPRHPSQLYEFALEGVVLFAILYIISRKTRSLGLASGTFLIGYGVFRSIVEFFREPDAHLGLYFSFISKGQILSIPMILAGILIIYLGYLSQQKSAIAQGDKALAAGGKSGKKTVKGNN”: “failed”.

The values above are taken from a protein production outcome set (Wang et al. 2014).
